We go through 140 substances from the supplement of paper PMC12042874.

± gives the uncertainty stated by the source.

This data set can be described thus: amyloid nucleation score (Sup35N fusion, yeast selection) (log enrichment); library NNK1; higher = more nucleation; inactive = no reads after selection. The essentials: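 The nucleation score is the DiMSum log enrichment of output over input reads, centred on the mode score of non-aggregating sequences. Only sequences with 100 or more input reads were scored, using Illumina sequencing of input and output plasmid inserts. Psi-negative yeast expressing Sup35N fused to peptides of 20 random codons were induced 24 hours with 100 μM copper sulfate and grown 7 days at 30°C on medium lacking adenine and uracil.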
As for FSTIGCKSMAVNCSFWYWSR, the amyloid nucleation score worked out at 6.196 ± 0.047.

With RTYKINGQSKFSLACITTLS, the amyloid nucleation score was -0.125 ± 0.7.

The substance VSRLRSDWNL came in with an amyloid nucleation score of 1.43 ± 0.3.

Substance FLSRFLMVRTRSAASVSAYE gave an amyloid nucleation score of -0.204 ± 0.39.

With YSNWGHVSRWFLRFIVVFFI, the amyloid nucleation score was 0.459 ± 0.64.

As for SEGCMSGRLCDRGVASFVWL, the amyloid nucleation score turned out to be 0.7 ± 0.97.

As for NSAKLIARLWMMWDLATSDW, the amyloid nucleation score is -0.89 ± 0.46.

Turning to WPELIFNGVPMSSCVLPGLF, the amyloid nucleation score is 1.12 ± 0.6.

On to KCGIVVNVQHRKPRGRIPAQ, for which the amyloid nucleation score is -1.02 ± 0.67.

MRSGTVYMVYLVHLKSFKWL returned an amyloid nucleation score of -0.265 ± 0.68.

On to TSSPKRFLIMKVNCIIILDL, for which the amyloid nucleation score was -0.721 ± 0.68.

On to YYFSVYQFCGGVFGSRDCLE, for which the amyloid nucleation score turned out to be 6.711 ± 0.05.

The substance NWGENWRLGMSSIREESGAE returned an amyloid nucleation score of -0.735 ± 2.1.

In the case of ALSFHYKNLVNT, the amyloid nucleation score came to 0.027 ± 0.49.

Substance SYGWCCTNYNSFVWTYPLTK displayed an amyloid nucleation score of 5.79 ± 0.06.

For the substance LGFTRIGPGALTAKA, the amyloid nucleation score was -0.72 ± 1.2.

DTPRCRGVS displayed an amyloid nucleation score of -0.197 ± 1.2.

In turn, SVYTNVLDTTNQGTKQNGPR displayed an amyloid nucleation score of 1.01 ± 0.47.

For GHYKGECYSLMNPV, the amyloid nucleation score is -0.067 ± 1.2.

The substance RIKVYALMHRSGGICTFIR yielded an amyloid nucleation score of 0.04 ± 0.21.

For the substance KLTQKCHKCLH, the amyloid nucleation score worked out at 0.107 ± 0.68.

Regarding SHGKVVIFSPSHCAGFFSCS, the amyloid nucleation score turned out to be 7.699 ± 0.061.

Substance SSETCTK gave an amyloid nucleation score of -0.024 ± 0.55.

Take FRGMGAS: the amyloid nucleation score worked out at 0.617 ± 0.62.

For the substance LSPLDIPTRDLPIFLTFKDT, the amyloid nucleation score result is “inactive”.

Consider TRFLLLSLRDGSEQV, for which the amyloid nucleation score was 0.577 ± 0.73.

Consider TYLAVGLMHYEWRGDSVSTD, for which the amyloid nucleation score was -0.603 ± 0.32.

For the substance EQTCVVGPQE, the amyloid nucleation score came to 0.397 ± 1.

As to SVHKSMKSDINMACHAKR, the amyloid nucleation score was 1.04 ± 0.6.

As for FSRDLLARGVDTPSVEFRSS, the amyloid nucleation score was -0.362 ± 0.72.

For the substance FASVTTIFFPSPLFFDIRWD, the amyloid nucleation score was 1.09 ± 0.79.

The substance FFENWVYYHKCSHCYTAQYT displayed an amyloid nucleation score of -0.559 ± 0.35.

Regarding DMPTS, the amyloid nucleation score turned out to be 0.45 ± 0.75.

ACSGISILTCIIYRRQYISS registered an amyloid nucleation score of -1 ± 0.91.

ASAWARNVVRSTVMKVSWVG: the amyloid nucleation score stood at 0.543 ± 0.45.

LGYAYSEPPWRLMVNWSPSA came in with an amyloid nucleation score of 1.66 ± 0.16.

FLAWRTLDEMVLCKRCDNAI yielded an amyloid nucleation score of 0.291 ± 1.

Turning to GVDLVSAIYGTSGHTVWMAF, the amyloid nucleation score was -0.054 ± 0.52.

RCNAKWL came in with an amyloid nucleation score of -0.426 ± 0.77.

For the substance EIRQVECLTCMRQ, the amyloid nucleation score is -0.839 ± 1.2.

On to LLVLMYNCFAIYKNWIF, for which the amyloid nucleation score was determined as 0.209 ± 1.2.

As for EDMWNFDRSHGLWYEGTSAM, the amyloid nucleation score came out at 0.72 ± 0.69.

In turn, KTSNKWMIKRNYRAYGHCSV came in with an amyloid nucleation score of -0.357 ± 0.37.

Substance SMGLHLMQMAAGEHIGRNR had an amyloid nucleation score of -0.31 ± 0.4.

Take NVGQPRNVVDSIQ: the amyloid nucleation score came to 0.67 ± 0.23.

FFFIN: the amyloid nucleation score was -0.391 ± 0.47.

GDLKSILVVLFSSLCVPTLR displayed an amyloid nucleation score of 1.26 ± 0.21.

In the case of LMWVNLTSVFVRMD, the amyloid nucleation score came to 0.14 ± 0.31.

The substance RSLQDGILKTKNCL registered an amyloid nucleation score of 0.659 ± 0.24.

The substance IYYMYYLYHYWMILRENDFM yielded an amyloid nucleation score of 0.151 ± 0.21.

On to DAGRWSYPGRCPNMWLRLLM, for which the amyloid nucleation score was -0.461 ± 0.68.

QSDMGIIP registered an amyloid nucleation score of 0.153 ± 0.47.

For the substance FLVVETI, the amyloid nucleation score result is “inactive”.

Regarding LRGFRFVAIMLSVYRKVKVD, the amyloid nucleation score is -0.531 ± 0.34.

On to GCLRTWQITLVEYNCMTLRI, for which the amyloid nucleation score was 0.215 ± 1.2.

With IVGKQSVLYYDSVFVTWMYK, the amyloid nucleation score is -0.509 ± 0.3.

With SDFYLGSRVTCGLNLSMAMG, the amyloid nucleation score is 0.686 ± 0.62.

KFMLWPNIWMN displayed an amyloid nucleation score of 0.916 ± 0.54.

Substance ARAVFLGEVGSAFFCRQSVW returned an amyloid nucleation score of 0.273 ± 0.74.

As for ITYKSFYHIQCFSGTSCKRF, the amyloid nucleation score came to 3.1 ± 0.11.

Turning to EFNDCGSLWFGFIRYIILMN, the amyloid nucleation score was determined as 0.081 ± 0.25.

On to MLMLSGVF, for which the amyloid nucleation score is -0.782 ± 0.53.

For RCSSGSRICAMRLLGYSSYI, the amyloid nucleation score is -0.066 ± 0.75.

In turn, EMWRYRRVGIPRLA returned an amyloid nucleation score of 0.358 ± 0.92.

The substance VLNFEGMSRAVFLRLISIQQ had an amyloid nucleation score of -0.837 ± 0.9.

As to ICGNSSTEASGL, the amyloid nucleation score was found to be 0.039 ± 0.56.

For VLAPF, the amyloid nucleation score result is “inactive”.

As to SNTKIED, the amyloid nucleation score amounted to 0.508 ± 0.59.

As to IIIACFVSCNELVGVSVIKT, the amyloid nucleation score came to 0.037 ± 0.25.

On to VYAMGIHWRFCAKKRIMSG, for which the amyloid nucleation score was -0.802 ± 1.7.

With ICFCL, the amyloid nucleation score was determined as 7.772 ± 0.054.

Take GLEWGGVKTQMKSWTMRMGG: the amyloid nucleation score was -1.4 ± 1.6.

Turning to PEARWWERMDKGCMKVFHFK, the amyloid nucleation score was 0.945 ± 0.44.

Regarding VRYVNRLKAHALDPKLKTL, the amyloid nucleation score was -0.18 ± 0.62.

The substance GFLTVNYWHSEV had an amyloid nucleation score of 0.065 ± 0.21.

The substance FQVVFGYSFMNMATISCVYE had an amyloid nucleation score of 5.03 ± 0.054.

As to SYSFAWGS, the amyloid nucleation score is 1.82 ± 0.45.

HLVGWESR returned an amyloid nucleation score of 0.476 ± 0.79.

With WVNGMYQGRNEYDEKI, the amyloid nucleation score is -0.455 ± 0.56.

Turning to WNDSYRINSTGCHDCLYRLF, the amyloid nucleation score is -0.37 ± 0.3.

On to GLLIVGRRYLGGADVDIHEE, for which the amyloid nucleation score was 0.713 ± 0.68.

For the substance VRNDQRLLCRRFVKFSDFQS, the amyloid nucleation score was -0.62 ± 0.95.

The substance CFDVQ gave an amyloid nucleation score of 2.29 ± 0.61.

Substance TYLVILR displayed an amyloid nucleation score of 0.33 ± 0.39.

As for FSLYAPSTPYSSMVRIRLSD, the amyloid nucleation score entry is “inactive”.

In turn, MLSKIFAHYSWSQAVTRAWG yielded an amyloid nucleation score of 1.75 ± 0.58.

VSLVMWVYCGDDWLSFAIRA registered an amyloid nucleation score of -0.211 ± 0.38.

For GFCNYMSFCFHIDASE, the amyloid nucleation score came to 7.587 ± 0.056.

Turning to LTRLSNCVLGGSC, the amyloid nucleation score was -0.512 ± 0.71.

Substance HVGIDIAVTWLQVKRVAMAS returned an amyloid nucleation score of 0.037 ± 0.31.

As for VMPYYRRSQNHDSFNFGDVS, the amyloid nucleation score is 0.552 ± 0.52.

The substance GVGRGCYSMACCSAGRLTDG gave an amyloid nucleation score of -0.122 ± 0.85.

For NTSWGYFR, the amyloid nucleation score is -0.426 ± 0.52.

The substance LLGYPSRLRPRYDFLPPGGM yielded an amyloid nucleation score of 0.014 ± 0.99.

With VIQRYRSVPI, the amyloid nucleation score amounted to 0.604 ± 0.67.

FGMVGTCYRMDRWDVIAVSV: the amyloid nucleation score was 0.44 ± 0.41.

Take GQAGGWTARGQSSDIDLGQR: the amyloid nucleation score is -0.146 ± 0.63.

HPMKCFQANQFINIYRNDVA displayed an amyloid nucleation score of 7.136 ± 0.059.

Substance LMQVVGTVGGRQCTVGWFGV returned an amyloid nucleation score of -0.523 ± 0.66.

VRFSVLKVTVLTKARNEVST registered an amyloid nucleation score of 1.7 ± 0.24.

For GSDTNSNRLIMLMFGTVFCA, the amyloid nucleation score was 2.84 ± 0.16.

Turning to ADRRLW, the amyloid nucleation score was -0.04 ± 0.32.

The substance SGTAKGVLAW returned an amyloid nucleation score of 1.4 ± 0.63.

In the case of KFFLRNGVAGTTVLLVQGLQ, the amyloid nucleation score entry is “inactive”.

Substance YLLCFCR registered an amyloid nucleation score of 0.354 ± 0.27.

In turn, IGMQLMVKTSLRHYGMYHTA gave an amyloid nucleation score of 1.65 ± 0.44.

With VFNMTYRKIRVTE, the amyloid nucleation score result is “inactive”.

Regarding FEDIRYDRKVWGICALSNCA, the amyloid nucleation score was found to be 0.814 ± 0.47.

The substance QLSVVNFKEM yielded an amyloid nucleation score of -0.219 ± 0.7.

LVRFSSVLCMQHQREV: the amyloid nucleation score was found to be 0.844 ± 0.55.

With FGLVREVFKM, the amyloid nucleation score is 0.171 ± 0.59.

SVFSTEVCSTHAMILWKY displayed an amyloid nucleation score of 0.117 ± 1.4.

The substance VIHLSVSWLGMLSGWANLFV gave an amyloid nucleation score of -0.529 ± 0.94.

FRFELYRLPVSDSLMKDLQL had an amyloid nucleation score of 0.998 ± 0.58.

The substance SVTRHALSNRSNGKIADCC returned an amyloid nucleation score of -0.306 ± 0.56.

Regarding FFNRNLMCVVLIVRT, the amyloid nucleation score is -0.388 ± 0.47.

YGTRVFIGSIRYFRTEEAKI gave an amyloid nucleation score of 0.35 ± 0.72.

The substance AGAWIVDVTGKSMERYVGNK registered an amyloid nucleation score of 0.133 ± 0.61.

As for STNLLDFVGKSYVNWKKFRT, the amyloid nucleation score was 0.104 ± 0.42.

Substance FTSPLKNHHLFGFAS registered an amyloid nucleation score of -0.345 ± 0.6.

Substance TTSCNGLFERAKNSTNSPDI returned an amyloid nucleation score of -2.25 ± 2.4.

Consider YPYNWSPYEAASIVAVQNYQ, for which the amyloid nucleation score is -1.44 ± 1.5.

Regarding KNHYYFA, the amyloid nucleation score was -0.203 ± 0.38.

The substance FSHDRGYLIFQVIRGHHCFM had an amyloid nucleation score of 0.277 ± 0.57.

For RIRVI, the amyloid nucleation score came out at 0.544 ± 0.63.

VAISDDDVLVWMYFS yielded an amyloid nucleation score of 0.154 ± 0.44.

SITWNPPVPVRTNVVDRNLG had an amyloid nucleation score of 0.48 ± 0.52.

For LAGGVHLRPHERKEFLD, the amyloid nucleation score result is “inactive”.

NIQSDRVHIFNELVRFSRWK displayed an amyloid nucleation score of 0.829 ± 0.97.

As for PTDRVVLNCM, the amyloid nucleation score entry is “inactive”.

The substance EYFLSQYRKFTGYFVVITAT came in with an amyloid nucleation score of 1.47 ± 0.76.

With LLCARCRMSVSEFPNPGVSY, the amyloid nucleation score entry is “inactive”.

The substance MEICNCKDYFKAYRRFSHGS registered an amyloid nucleation score of 1.56 ± 0.27.

As for TFSHNIIRSCLTKESVSFP, the amyloid nucleation score entry was “inactive”.

In turn, MVVWWRHKVLKGHWL yielded an amyloid nucleation score of -0.189 ± 0.61.

GLSAEYFHFPVKRAVSMTLV: the amyloid nucleation score is -0.049 ± 0.6.

As for WFSINIGKMGARVLSVGQDG, the amyloid nucleation score result is “inactive”.

As for NCERVTDYELIRGSSILKVV, the amyloid nucleation score was found to be 0.311 ± 0.73.

The substance HNTSLYVTLNSSTR registered an amyloid nucleation score of 6.2 ± 0.09.

Take SVWIKSST: the amyloid nucleation score was -0.285 ± 1.4.
